Laboratory results taken from US20230248820A1.

Molecular target: HCMV pentameric complex gH/gL/pUL128/pUL130/pUL131A (Pentamer), wild type, Merlin strain (HCMV Merlin strain) (UniProt Q6SW67)
Experiment: method not stated

For “8I21 with HCDR3 Trp105 mutated to alanine (antibody)”, which fold decrease in binding affinity against 8I21 without the mutation is on record?
Its fold decrease in binding affinity against 8I21 without the mutation is over 150 fold.
